Target: the molecule itself
Experiment: SEC

Row | Protein | stoichiometry N
1 | PAN subcomplex I fragment (residues 74-150), coiled-coil OB-fold domain (domain or fragment, Methanocaldococcus jannaschii, UniProt Q58576 74-150, looked up, selenomethionine (in the crystals used for MAD phasing and refinement)) MKENEILRRELDRMRVPPLIVGTVVDKVGERKVVVKSSTGPSFLVNVSHFVNPDDLAPGKRVCLNQQTLTVVDVLPE | 6
2 | PAN nucleotidase domain (residues 155-430) (domain or fragment, Methanocaldococcus jannaschii, UniProt Q58576 155-430, looked up) RAKAMEVDERPNVRYEDIGGLEKQMQEIREVVELPLKHPELFEKVGIEPPKGILLYGPPGTGKTLLAKAVATETNATFIRVVGSELVKKFIGEGASLVKDIFKLAKEKAPSIIFIDEIDAIAAKRTDALTGGDREVQRTLMQLLAEMDGFDARGDVKIIGATNRPDILDPAILRPGRFDRIIEVPAPDEKGRLEILKIHTRKMNLAEDVNLEEIAKMTEGCVGAELKAICTEAGMNAIRELRDYVTMDDFRKAVEKIMEKKKVKVKEPAHLDVLYR | 6

Source: PMC3268689 (Molecular Cell, 2009)
